Data set [1] deals with T1, hcGAS (human, UniProt Q8N884 1-522). Description: phase separation microscopy; droplets sensitive to salt >250 mM; none at 300 mM NaCl/KCl; Binding buffers for pull-down, EMSA and phase separation not in the material; phase separation tested at varied NaCl/KCl up to 300 mM or more. The following applies: protein: recombinant; tags: 6xHis-SUMO2 construct (pET); blunt.
The target in data set [2] is hcGAS;ORF9 (phase separation preparation) (human;Varicella-zoster virus, UniProt Q8N884;Q4JQW6 1-522;1-302, |). Put plainly: phase separation microscopy; 3-fold molar excess ORF9; larger droplets, also formed at 300 mM NaCl/KCl; Binding buffers for pull-down, EMSA and phase separation not in the material; phase separation tested at varied NaCl/KCl up to 300 mM or more. The conditions noted are these: protein: recombinant;recombinant; tags: 6xHis-SUMO2 construct (pET);6xHis-SUMO2 removed by SENP2; blunt.

In data set [3] the target is T2, ORF9 (phase separation preparation) (Varicella-zoster virus, UniProt Q4JQW6 1-302).
T2 sequence: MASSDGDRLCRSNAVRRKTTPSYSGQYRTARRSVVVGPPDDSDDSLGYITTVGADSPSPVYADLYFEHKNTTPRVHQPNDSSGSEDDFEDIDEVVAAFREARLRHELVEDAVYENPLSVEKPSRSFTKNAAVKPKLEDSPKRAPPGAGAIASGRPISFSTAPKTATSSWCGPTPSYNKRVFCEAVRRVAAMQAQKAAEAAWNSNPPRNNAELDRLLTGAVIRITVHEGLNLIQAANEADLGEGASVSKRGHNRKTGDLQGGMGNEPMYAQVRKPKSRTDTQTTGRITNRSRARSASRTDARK
Description: phase separation microscopy; no cGAS; smaller droplets than cGAS-DNA; Binding buffers for pull-down, EMSA and phase separation not in the material; phase separation tested at varied NaCl/KCl up to 300 mM or more. The conditions noted are these: protein: recombinant; tags: 6xHis-SUMO2 removed by SENP2; blunt. On the technique in general: In EMSA bound probe runs differently from free probe, usually more slowly.

Data set [4] deals with cGAS (pull-down preparation) (human, UniProt Q8N884 1-522). Description: pull-down; Binding buffers for pull-down, EMSA and phase separation not in the material; phase separation tested at varied NaCl/KCl up to 300 mM or more. The following applies: protein: recombinant; tags: GST cleaved by PreScission; label: biotin; blunt.
The target in data set [5] is T3, ORF9 (FLAG-ORF9) (Varicella-zoster virus, UniProt Q4JQW6 1-302).
T3 sequence: T2 sequence
Put plainly: pull-down. The following applies: protein: recombinant; tags: N-terminal FLAG (GST cleaved by PreScission); label: biotin; blunt.

Data set [6] concerns the target T1, hcGAS. Description: EMSA (agarose); high-molecular-weight complexes; Binding buffers for pull-down, EMSA and phase separation not in the material; phase separation tested at varied NaCl/KCl up to 300 mM or more. The conditions noted are these: protein: recombinant; tags: 6xHis-SUMO2 construct (pET); blunt.
Data set [7] addresses hcGAS;ORF9 (EMSA preparation) (human;Varicella-zoster virus, UniProt Q8N884;Q4JQW6 1-522;1-302, |). Put plainly: EMSA (agarose); increasing ORF9 enlarges cGAS-DNA complexes; Binding buffers for pull-down, EMSA and phase separation not in the material; phase separation tested at varied NaCl/KCl up to 300 mM or more. The following applies: protein: recombinant;recombinant; tags: 6xHis-SUMO2 construct (pET);N-terminal FLAG (pET28a, Ni-NTA purified); blunt.

Data set [8] deals with T4, ORF9 (EMSA preparation) (Varicella-zoster virus, UniProt Q4JQW6 1-302).
T4 sequence: T2 sequence
Put plainly: EMSA (agarose); Binding buffers for pull-down, EMSA and phase separation not in the material; phase separation tested at varied NaCl/KCl up to 300 mM or more. The conditions noted are these: protein: recombinant; tags: N-terminal FLAG (pET28a, Ni-NTA purified); blunt.

T1 sequence (Q8N884 whole entry): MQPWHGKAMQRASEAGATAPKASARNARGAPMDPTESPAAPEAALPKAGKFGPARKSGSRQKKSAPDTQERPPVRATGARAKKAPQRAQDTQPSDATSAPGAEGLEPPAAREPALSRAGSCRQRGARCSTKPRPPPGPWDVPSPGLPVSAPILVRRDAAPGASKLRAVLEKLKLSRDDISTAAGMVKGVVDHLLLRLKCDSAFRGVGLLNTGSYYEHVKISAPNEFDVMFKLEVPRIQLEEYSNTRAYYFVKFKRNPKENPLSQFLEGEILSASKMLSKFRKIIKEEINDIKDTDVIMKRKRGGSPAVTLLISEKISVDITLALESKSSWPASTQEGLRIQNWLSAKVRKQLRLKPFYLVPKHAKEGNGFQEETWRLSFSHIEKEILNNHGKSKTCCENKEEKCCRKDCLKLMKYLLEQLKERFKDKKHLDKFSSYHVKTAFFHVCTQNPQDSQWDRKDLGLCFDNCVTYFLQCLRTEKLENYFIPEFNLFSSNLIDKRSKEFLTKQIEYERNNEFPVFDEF
cGAS (pull-down preparation), sequence (Q8N884 whole entry): as above
hcGAS;ORF9 (EMSA preparation), sequence (Q8N884 whole entry, one chain of several): as the sequence (Q8N884 whole entry) above
hcGAS;ORF9 (phase separation preparation), sequence (Q8N884 whole entry, one chain of several): as the sequence (Q8N884 whole entry) above

B1: 100 bp ISD (dsDNA)
DNA 1: ACATCTAGTACATGTCTAGTCAGTATCTAGTGATTATCTAGACATACATCTAGTACATGTCTAGTCAGTATCTAGTGATTATCTAGACATGGACTCATCC
DNA 2: GGATGAGTCCATGTCTAGATAATCACTAGATACTGACTAGACATGTACTAGATGTATGTCTAGATAATCACTAGATACTGACTAGACATGTACTAGATGT
In the case of B1, the binding result in data set [1], in data set [2] and in data set [3] was “binds” throughout.

B2: VACV-70mer-Biotin (dsDNA)
DNA 1: CCATCAGAAAGAGGTTTAATATTTTTGTGAGACCATCGAAGAGAGAAAGAGATAAAACTTTTTTACGACT
DNA 2: AGTCGTAAAAAAGTTTTATCTCTTTCTCTCTTCGATGGTCTCACAAAAATATTAAACCTCTTTCTGATGG
modifications: 3' TEG-biotin on forward strand
Turning to B2, the binding result in data set [4] and in data set [5] was “binds” each time.

B3: VACV70mer dsDNA (dsDNA)
DNA 1: B2 DNA 1
DNA 2: B2 DNA 2
B3: the binding result in data set [6], in data set [7] and in data set [8] was “binds” throughout.

The values are drawn from article PMC9289529, “Varicella‐Zoster virus ORF9 is an antagonist of the DNA sensor cGAS”.
